{"source": "patent US20260027190A1", "about": "“OVARIAN TUMOR DEUBIQUITINASE OXIDATION AND USES THEREOF” (The University of Vermont and State Agricultural College, priority 2022, published 2026)", "molecules": {"B1": {"name": "GLRX: recombinant wild-type glutaredoxin protein, deglutathionylating enzyme, administered directly to cells (protein, UniProt P35754 2-106, looked up)", "Glutaredoxin-1": "AQEFVNCKIQPGKVVVFIKPTCPYCRRAQEILSQLPIKQGLLEFVDITATNHTNEIQDYLQQLTGARTVPRVFIGKDCIGGCSDLVSLQQSGELLTRLKQIGALQ"}}, "key": {"[1]": {"system": "mouse tracheal epithelial (MTE) cells", "experiment": "Total PSSG in MTE cells treated with recombinant GLRX", "assay_type": "cell-based", "settings": "direct administration of recombinant protein to MTE cells", "procedure": "OTUB1 was one of the PSSG targets detected in IL1B-stimulated epithelial cells raising the possibility that S-glutathionylation of OTUB1 affects the stability of SLC7A11. To investigate this, immunoprecipitation of GSH followed by Western Blotting of OTUB1 in MTE cells treated with vehicle or IL1B was performed. Dithiothreitol (DTT) was incubated with cell lysates prior to immunoprecipitation as a negative control. OTUB1 levels from whole cell lysates were used as the input control. Increases in OTUB1 S-glutathionylation (OTUB1-SSG) in response to IL1B were observed, with further increases occurring in cells lacking Glrx (FIG. 4G), consistent with the role of GLRX as a deglutathionylating enzyme. Western blots were performed using cells treated with the WT- or C23S-mutant GLRX recombinant protein to examine the presence of glutaredoxin (FIG. 4H) and total PSSG (FIG. 4I) (P-value*<0.05, **<0.01, ***<0.001, ****<0.0001). […] Glutathione was evaluated in MTE cells treated with recombinant WT- or C23S-mutant GLRX (FIG. 4J) and glutamate in cell culture supernatant of MTE cells treated with WT or the C23S mutant GLRX was also evaluated (FIG. 4K). […]\nCell lysates were prepared in 100 mM potassium phosphate buffer containing 0.6% sulfosalicylic acid, 1 mM ethylenediaminetetraacetic acid (EDTA) and 0.01% triton-x-100. […] Kinetic absorbance was measured every minute at 412 nm for 20 minutes. […]"}, "OTUB1": {"system": "OTUB1", "experiment": "OTUB1-SSG: GSH immunoprecipitation followed by OTUB1 Western blot", "assay_type": "cell-based, mouse", "settings": "cells treated with recombinant protein", "procedure": "OTUB1 was one of the PSSG targets detected in IL1B-stimulated epithelial cells raising the possibility that S-glutathionylation of OTUB1 affects the stability of SLC7A11. To investigate this, immunoprecipitation of GSH followed by Western Blotting of OTUB1 in MTE cells treated with vehicle or IL1B was performed. Dithiothreitol (DTT) was incubated with cell lysates prior to immunoprecipitation as a negative control. OTUB1 levels from whole cell lysates were used as the input control. Increases in OTUB1 S-glutathionylation (OTUB1-SSG) in response to IL1B were observed, with further increases occurring in cells lacking Glrx (FIG. 4G), consistent with the role of GLRX as a deglutathionylating enzyme. Western blots were performed using cells treated with the WT- or C23S-mutant GLRX recombinant protein to examine the presence of glutaredoxin (FIG. 4H) and total PSSG (FIG. 4I) (P-value*<0.05, **<0.01, ***<0.001, ****<0.0001). GAPDH was used as a loading control. Glutathione was evaluated in MTE cells treated with recombinant WT- or C23S-mutant GLRX (FIG. 4J) and glutamate in cell culture supernatant of MTE cells treated with WT or the C23S mutant GLRX was also evaluated (FIG. 4K). […]"}, "H522 cells": {"system": "H522 cells", "experiment": "Synergy of GLRX and cisplatin in killing of H522 cells (Synergy Finder)", "assay_type": "cell-based", "settings": "Chou-Talalay method (Synergy Finder)"}, "KRAS-mutant A549 cells": {"system": "KRAS-mutant A549 cells", "experiment": "A549 cell viability / cisplatin-induced killing", "assay_type": "cell-based"}, "OTUB1 and UBCH5A": {"system": "OTUB1 and UBCH5A", "experiment": "Interaction between OTUB1 and UBCH5A", "assay_type": "cell-based", "settings": "FIG. 14D", "from_the_text": "OTUB1 was previously shown to interfere with ubiquitination and subsequent proteasomal degradation of SLC7A11. Overexpression of OTUB1 decreased ubiquitinated SLC7A11 (FIG. 17). […] The OTUB1-mediated attenuation of ubiquitination can occur through multiple mechanisms. OTUB1 can act as a canonical deubiquitinase that cleaves K48 chains. Alternatively, OTUB1 also can inhibit the function of E2 conjugating enzymes, including UBCH5 and OTUB1 has been found in a complex with E2 enzymes. Additionally, binding of E2 enzymes to OTUB1 can also promote OTUB1 deubiquitinase activity dependent on the ratio of ubiquitin-charged E2 to uncharged E2 enzyme and levels of free ubiquitin. OTUB1 D88 binds E2 enzymes and suppresses Ub-conjugating activity. Stabilization of SLC7A11 by OTUB1 has been speculated to involve directly binding between OTUB1 and SLC7A11 as well as the inhibition of E2 enzymes. […] These collective observations, along with observed increases in GSH following expression of OTUB1-C91S (FIG. 6C) support a non-canonical role of OTUB1 in augmenting GSH. […] To address this possible scenario, the present disclosure determined whether OTUB1-S-glutathionylation affected the interaction between OTUB1 and UBCH5A which requires the N-terminal region containing C23. […]"}, "human LUAD organoids": {"system": "human LUAD organoids", "experiment": "Human LUAD organoid viability / cisplatin-induced killing", "assay_type": "cell-based", "from_the_text": "To date, the first line therapy for advanced KRAS-mutant lung adenocarcinoma (LUAD) consists of platinum-based chemotherapy in combination with the immune checkpoint inhibitor, pembrolizumab, or pembrolizumab alone in patients whose tumors have PD-L1 expression equal or greater than 50%. […] However, tumor resistance to platinum and toxicity is limited in its effectiveness, necessitating the development of strategies to increase sensitivity to cisplatin-induced killing and increase responsiveness to immune checkpoint inhibitors. Increases in GSH contribute to resistance of cisplatin-induced killing. In one study we administered 20 μg/ml of GLRX to human LUAD organoids in the presence or absence of cisplatin."}}}
{"molecule": "B1", "values": [{"measurement": "overall PSSG", "setting": "[1]", "value": "decreased"}, {"measurement": "OTUB1-SSG (OTUB1 S-glutathionylation)", "setting": "OTUB1", "value": "decreased"}, {"measurement": "synergy with cisplatin (ZIP Score)", "setting": "H522 cells", "value": "> 10"}, {"measurement": "viability", "setting": "KRAS-mutant A549 cells; GLRX alone", "value": "did not decrease"}, {"measurement": "cisplatin-induced killing", "setting": "KRAS-mutant A549 cells; GLRX with cisplatin", "value": "promoted"}, {"measurement": "interaction between OTUB1 and UBCH5A", "setting": "OTUB1 and UBCH5A", "value": "decreases"}, {"measurement": "viability of human LUAD organoids", "setting": "human LUAD organoids; 20 μg/ml GLRX alone", "value": "did not affect"}, {"measurement": "sensitivity to cisplatin-induced tumor organoid killing", "setting": "human LUAD organoids; 20 μg/ml GLRX with cisplatin, compared to cisplatin only", "value": "strongly increased"}]}
